Reference: PMC8123127, “Structural Bases for the Synergistic Inhibition of Human Thymidylate Synthase and Ovarian Cancer Cell Growth by Drug Combinations” (Cancers, 2021)

Legend:
[1] = substrate: Nc1nc2c(c(=O)[nH]1)N1CN(c3ccc(C(=O)N[C@@H](CCC(=O)O)C(=O)O)cc3)CC1CN2; assay: purified protein; settings: dUMP cofactor site in the catalytic pocket; varied: cofactor
[2] = substrate: O=c1ccn([C@H]2C[C@H](O)[C@@H](COP(=O)(O)O)O2)c(=O)[nH]1; assay: purified protein; assay type: biochemical, Homo sapiens; settings: mTHF substrate site in the catalytic pocket

B1: human thymidylate synthase (hTS) (Homo sapiens) (protein)
chain: MPVAGSELPRRPLPPAAQERDAEPRPPHGELQYLGQIQHILRCGVRKDDRTGTGTLSVFGMQARYSLRDEFPLLTTKRVFWKGVLEELLWFIKGSTNAKELSSKGVKIWDANGSRDFLDSLGFSTREEGDLGPVYGFQWRHFGAEYRDMESDYSGQGVDQLQRVIDTIKTNPDDRRIIMCAWNPRDLPLMALPPCHALCQFYVVNSELSCQLYQRSGDMGLGVPFNIASYALLTYMIAHITGLKPGDFIHTLGDAHIYLNHIEPLKIQLQREPRPFPKLRILRKVEKIDDFKAEDFQIEGYNPHPTIKMEMAV
notes: His6-tag protein (non-cleavable N-terminal His6-tag)
Km [1]: 5 µM
Km [2]: 10 µM
